Test results published in article PMC5951847, “Substrate sequence selectivity of APOBEC3A implicates intra-DNA interactions”.

How the values were obtained:
[1] = molecular target: T1, A3A(E72A) (Homo sapiens, UniProt P31941 1-199, E72A); experiment: fluorescence anisotropy; pH 6.0; 50 mM MES pH 6.0, 100 mM NaCl, 0.5 mM TCEP, room temperature overnight, 10 nM TAMRA-oligo; competition with 300 nM A3A(E72A); pH series: acetate 4.0-5.0, MES 5.5-6.5, HEPES 7.0-8.0, Tris 8.5-9.0; conditions: protein: recombinant, tags: His6-SUMO removed by Ulp1 (untagged)
T1 sequence (P31941 whole entry E72A): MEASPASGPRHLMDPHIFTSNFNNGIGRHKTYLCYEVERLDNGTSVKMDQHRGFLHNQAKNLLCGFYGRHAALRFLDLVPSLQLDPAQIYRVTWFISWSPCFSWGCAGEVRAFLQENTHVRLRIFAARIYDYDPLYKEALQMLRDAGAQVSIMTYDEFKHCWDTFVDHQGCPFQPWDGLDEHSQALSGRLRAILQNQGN

[2] = molecular target: T1, A3A(E72A); experiment: competition; vs TAMRA-3A-TTCA-6A; 50 mM MES pH 6.0, 100 mM NaCl, 0.5 mM TCEP, room temperature overnight, 10 nM TAMRA-oligo; competition with 300 nM A3A(E72A); pH series: acetate 4.0-5.0, MES 5.5-6.5, HEPES 7.0-8.0, Tris 8.5-9.0; conditions: protein: recombinant; tags: His6-SUMO removed by Ulp1 (untagged); label: unlabeled

| Binder | Kd ([1]; label: 5' TAMRA) | also measured |
| --- | --- | --- |
| AAACTCAAAAAA (ssDNA) [Poly A-CTCA (3A-CTCA-5A)] | 85 ± 1 nM |  |
| AAAATCAAAAAA (ssDNA) [Poly A-TC (4A-TC-6A)] | 143 ± 4 nM |  |
| AAACTCCAAAAA (ssDNA) [Poly A-CTCC (3A-CTCC-5A)] | 101 ± 2 nM |  |
| AAATTCTAAAAA (ssDNA) [Poly A-TTCT (3A-TTCT-5A)] | 127 ± 2 nM |  |
| AAAATCCAAAAA (ssDNA) [Poly A-ATCC (3A-ATCC-5A)] | 163 ± 3 nM |  |
| AAATTCCAAAAA (ssDNA) [Poly A-TTCC (3A-TTCC-5A)] | 114 ± 2 nM |  |
| AAAATCTAAAAA (ssDNA) [Poly A-ATCT (3A-ATCT-5A)] | 209 ± 5 nM |  |
| GCCAUCUAAAGAUGGG (structured_RNA) [SDHB hairpin RNA, loop UC to AA] |  | Kd ([1]; label: TAMRA (5'), hairpin): 202 nM |
| AAACTCTAAAAA (ssDNA) [Poly A-CTCT (3A-CTCT-5A)] | 122 ± 2 nM |  |
| AAATTCAAAAAA (ssDNA) [Poly A-TTCA (3A-TTCA-5A)] | 90 ± 1 nM |  |
| TTTTTTTTTTTT (ssDNA) [Poly T (12 T)] | 748 ± 44 nM |  |
| GCCAUCUAUCGAUGGG (structured_RNA) [SDHB hairpin RNA (UC in loop)] |  | Kd ([1]; label: TAMRA (5'), hairpin): 37 nM |
| AAAATCGAAAAA (ssDNA) [Poly A-ATCG (3A-ATCG-5A)] | 154 ± 2 nM |  |
| AAAGTCAAAAAA (ssDNA) [Poly A-GTCA (3A-GTCA-5A)] | 150 ± 3 nM |  |
| AAAGTCCAAAAA (ssDNA) [Poly A-GTCC (3A-GTCC-5A)] | 152 ± 2 nM |  |
| AAAGTCTAAAAA (ssDNA) [Poly A-GTCT (3A-GTCT-5A)] | 218 ± 7 nM |  |
| AAAACCAAAAAA (ssDNA) [Poly A-CC (4A-CC-6A)] | 250 ± 14 nM |  |
| CCCCCCCCCCCC (ssDNA) [Poly C (12 C)] | 1570 ± 117 nM |  |
| AAAGTCGAAAAA (ssDNA) [Poly A-GTCG (3A-GTCG-5A)] | 150 ± 3 nM |  |
| TTCAA (ssDNA) [TTCA-1A] |  | binding result [2]: no binding |
| TTTTTCTTTTTT (ssDNA) [Poly T-C (5T-C-6T)] | 35 ± 2 nM |  |
| AAAATCAAAAAA (ssDNA) [Poly A-ATCA (3A-ATCA-5A)] | 145 ± 2 nM |  |
| ATTCA (ssDNA) [1A-TTCA] |  | binding result [2]: no binding |
